We go through one molecule from patent US9364516B2, “Treatment of fibrosis-related disorders using fibronectin binding proteins and polypeptides” (priority 2010, dated 2016).

For one experiment, the system named is type I collagen. Description: ELISA binding of pUR4 to ECM proteins: collagen I. The conditions noted are these: plates coated 10 μg/mL, FIG. 7. The method, then: FIG. 7 is a graph depicting the binding of pUR4 to ECM Proteins. 96-well plates were coated with 10 μg/mL type I collagen (COL), denatured type I collagen (dCOL), fibronectin (FN), laminin (LN), vitronectin (VN), or fibrinogen (FG) at 4° C. overnight. pUR4 was added to the wells and serially diluted. Bound pUR4 was detected as described herein. Measurements were done at 405 nm on a Wallac 1420 multilabel counter. Data represents the average of duplicate determinations, and the error bars the range.
96-well tissue culture plates were coated with 10 μg/mL type I collagen, fibronectin, laminin, fibrinogen, or vitronectin overnight at 4° C. Denatured collagens were generated as described (George et al., “Fibronectins are Essential for Heart and Blood Vessel Morphogenesis but are Dispensable for Initial Specification of Precursor Cells,” Blood 90:3073-3081 (1997), which is hereby incorporated by reference in its entirety). Plates were blocked with 1% bovine serum albumin (BSA) in Tris buffered saline (TBS) for 1 hour, then washed with TBS. pUR4 was serially diluted into coated wells, then incubated at room temperature for 90 min. Wells were washed with TBS containing 0.1% Tween 20. […] After washing, peroxidase activity was quantified by using 2,2′-azino-bis-(3-ethylbenthiazoline-[…]). […]
(In general: ELISA stands for enzyme-linked immunosorbent assay.)

The next experiment relates to Rat aortic SMCs. Description: qRT-PCR of fibronectin and collagen I in SMC. In kind it is cell-based. Particulars: 500 nM, 24 h; PBS control set equal to 1; average of duplicates ± range. The method, then:
(§1) mRNA was isolated from RASMs 24 hours after incubation with 500 nM pUR4 or III-11C control peptides using RNAzol as per the manufacturer's instructions (Invitrogen). cDNA was prepared using a Superscript First Strand cDNA kit as per the manufacturer's instructions (Invitrogen). Mouse carotid arteries were harvested and frozen in liquid nitrogen. RNA was isolated using Trizol and purified using a QIAgen RNeasy Micro Kit. RNA integrity was examined with an Agilent 2100 Bioanalyser using RNA6000 NanoAssay (Agilent Technology). Whole transcriptome amplification was performed using Qiagen's QuantiTect Whole Transcriptome Amplification Kit. Quantitative RT-PCR analyses were performed using ABI Prism 7900HT sequence detection system (Applied Biosystems). The qRT-PCR primers for 3 mouse genes were obtained from ABI: GADPH (4352932E), fibronectin (Mm01256744_m1), and collagen Ia1 (Mm00801666_g1). TaqMan probe chemistry was used according to the manufacturer's instructions. qRT-PCR reactions were run in triplicate for each sample. The data was normalized to the levels of GAPDH in each sample, and the results were averaged.
Background: Quantitative PCR measures a nucleic acid by following its amplification.

The next experiment deals with Mouse carotid arteries. Kind of experiment: qRT-PCR of fibronectin and collagen I in carotid arteries after ligation. It is filed as in vivo. Particulars: III-11C set equal to 1, mean ± s.e.m., 3 arteries. The protocol: as §1
Blood flow in the left carotid artery of 10-week-old FVB/NJ (FVB) mice was reduced by ligating the external and internal carotid arterial branches as described (Korshunov et al., “Flow-Induced Vascular Remodeling in the Mouse: A Model for Carotid Intima-Media Thickening,” Arterioscler. Thromb. Vasc. Biol. 23:2185-2191 (2003), which is hereby incorporated by reference in its entirety). Mice were anesthetized with an intraperitoneal injection of ketamine (80 mg/kg) and xylazine (5 mg/kg) as described in the above-cited referenced. The left common carotid artery was dissected free of the surrounding connective tissue and 50 μL of F-127 pluronic gel (BASF) containing 20 μmol/L pUR4 or III-11C was applied around the carotid artery. Animals were separated into 5 groups containing 5 to 10 animals each: (1) sham-operated, in which the branches of the left carotid artery were exposed and dissected out, but not ligated; (2) ligation; (3) ligation with pluronic gel; (4) ligation with pluronic gel containing III-11C; (5) ligation with pluronic gel containing pUR4.

B1: pUR4: 49-mer peptide derived from the bacterial F1 adhesin, His tagged, SEQ ID NO:1; class I fibronectin polymerization inhibitor (peptide)
chain: MRGSHHHHHHGSKDQSPLAGESGETEYITEVYGNQQNPVDIDKKLPNETGFSGNMVETEDTKLN
modifications: His tag; Bacterial adhesin derived peptide pUR4
With B1, in the experiment with type I collagen, the “binding to collagen I” value is listed as “does not bind”. Also, in the experiment on Rat aortic SMCs, the “Col Ia1 mRNA, relative level” value was found to be 1.42 ± 0.06 and the “Fibronectin mRNA, relative level” value is recorded as 1.43 ± 0.02. Besides, in the experiment with Mouse carotid arteries (4 days post surgery), the “Col Ia1 mRNA, relative level, Day 4” value was determined as 0.60 ± 0.30 and the “Fibronectin mRNA, relative level, Day 4” value was determined as 0.70 ± 0.23. In the experiment with Mouse carotid arteries (7 days post surgery), the “Col Ia1 mRNA, relative level, Day 7” value was 0.58 ± 0.36 and the “Fibronectin mRNA, relative level, Day 7” value is recorded as 0.41 ± 0.23.
